Data from PMC9057628.

Columns and labels:
[1] = molecular target: recombinant full-length human TTRV122I with N-terminal AviTag (human) (UniProt P02766); test: SEC; time series: TTR in 1M urea pH 7.6 at room temperature on a rotating platform for 1 hour to 7 days; oligomers between 200 and 600 kDa; also with 100 uM H2O2 or 5 mM DTT
[2] = molecular target: recombinant full-length human TTRWT with N-terminal AviTag (human) (UniProt P02766); test: as above

stoichiometry N (protein subunits) [1] | stoichiometry N (protein subunits) [2] | Substance
15 |  | recombinant full-length human TTRV122I with N-terminal AviTag (from UniProt P02766 21-147) (natural protein)
 | 10 | recombinant full-length human TTRWT with N-terminal AviTag (from UniProt P02766 21-147) (natural protein)
